For the experiment, the target named is CoV OC43 spike glycoprotein (S) (human coronavirus OC43) (UniProt P36334). Briefly: […], running buffer TBS, […].

Here are results for one substance from publication PMC12404239.

With “CoV OC43 spike glycoprotein (S) (from UniProt P36334 14-1263) (natural protein)”, the stoichiometry N came out at 3.

By stoichiometry N is commonly meant a count of units in the complex or per binding partner.
